Measurements: publication doi:10.1101/2025.02.12.637823v1 (biorxiv, 2025)

Assays:
[1] = tested on: SlNADP-ME4a; assay: initial velocity, spectrophotometric; assay type: biochemical, Solanum lycopersicum; conditions: pyruvate reductive carboxylation (reverse reaction); assay details not given
[2] = substrate: CC(=O)C(=O)O; assay: initial velocity, spectrophotometric; assay type: biochemical, Solanum lycopersicum; conditions: pyruvate reductive carboxylation (reverse reaction); assay details not given

Row | Km [1] [mM] | Molecule | Km [2] [mM] | kcat [2] [s⁻¹]
1 | 15.5 ± 1 | CC(=O)C(=O)O [pyr] |  | 
2 |  | SlNADP-ME2 (Solanum lycopersicum) (protein) MESALKDLSTPTGGVEDVYGEDCATEDQCITPWTIAVSSGYNLLRDPRYNKGLAFTERERDAHYLRGLLPPVISSQELQEKKLMQSIRQYDVPLHKYVAMMELEERNERLFYKLLIDNVEELLPIVYTPTVGEACQKYGSLFKRPQGLYISLNEKGRILEVLKNWPEKSIQVIVVTDGERILGLGDLGCQGMGIPVGKLALYTALGGVRPSACLPITIDVGTNNEKLLNDEFYIGLRQRRATGQEYYDFLHEFMSAVKQNYGEKILVQFEDFANHNAFELLAKYRTSHLVFNDDIQGTASVVLAGLIASLKLLGGALCDHTFLFLGAGEAGTGIAELIALEISNKTNIPVEETRKKIWLVDSKGLIVSGRKETLQAFKKPWAHEHEPVNNLLDAVKAVKPTVLIGTSGTGRTFTKEVVEAMACMNKRPLIMALSNPTSQAECTAEEAYTWSEGRAVFASGSPFPSFEYDGKLNIPGQANNCYIFPGFGFGLVMSGTIRVHDDMLLAASEALAAQVTEEHYAKGMIYPPFADIRKISAHIAASVAAKAYELGVATRLPRPADLVKYAESCMYTPNYRSYR | 5.0 ± 1.1 | 26.5 ± 1.7
